# From publication PMC3343632 (Nature cell biology, 2012)
# Molecular target: the molecule itself
# Test: single-molecule TIRF microscopy with stepwise photobleaching
protein,measurement,value
"GFP-tagged tailless kinesin-1 motor, taillessKhc::GFP (1-849) (domain or fragment, UniProt P17210 1-849, looked up) MSAEREIPAEDSIKVVCRFRPLNDSEEKAGSKFVVKFPNNVEENCISIAGKVYLFDKVFKPNASQEKVYNEAAKSIVTDVLAGYNGTIFAYGQTSSGKTHTMEGVIGDSVKQGIIPRIVNDIFNHIYAMEVNLEFHIKVSYYEIYMDKIRDLLDVSKVNLSVHEDKNRVPYVKGATERFVSSPEDVFEVIEEGKSNRHIAVTNMNEHSSRSHSVFLINVKQENLENQKKLSGKLYLVDLAGSEKVSKTGAEGTVLDEAKNINKSLSALGNVISALADGNKTHIPYRDSKLTRILQESLGGNARTTIVICCSPASFNESETKSTLDFGRRAKTVKNVVCVNEELTAEEWKRRYEKEKEKNARLKGKVEKLEIELARWRAGETVKAEEQINMEDLMEASTPNLEVEAAQTAAAEAALAAQRTALANMSASVAVNEQARLATECERLYQQLDDKDEEINQQSQYAEQLKEQVMEQEELIANARREYETLQSEMARIQQENESAKEEVKEVLQALEELAVNYDQKSQEIDNKNKDIDALNEELQQKQSVFNAASTELQQLKDMSSHQKKRITEMLTNLLRDLGEVGQAIAPGESSIDLKMSALAGTDASKVEEDFTMARLFISKMKTEAKNIAQRCSNMETQQADSNKKISEYEKDLGEYRLLISQHEARMKSLQESMREAENKKRTLEEQIDSLREECAKLKAAEHVSAVNAEEKQRAEELRSMFDSQMDELREAHTRQVSELRDEIAAKQHEMDEMKDVHQKLLLAHQQMTADYEKVRQEDAEKSSELQNIILTNERREQARKDLKGLEDTVAKELQTLHNLRKLFVQDLQQRIRKNVVNEESEEDGGSLA",stoichiometry N,2
